Assay results taken from publication doi:10.1101/2021.04.20.440599, “Structures of a deAMPylation complex rationalise the switch between antagonistic catalytic activities of FICD (14/96/109)” (bioRxiv, 2021).
Substitutions are numbered along the chain they refer to. Names and notes keep the numbering of the source.

B1: FICD^L258D-H363A (residues 104-445) (enzyme, human, UniProt Q9BVA6 104-445, looked up)
chain: LEARAALNQALEMKRQGKREKAQKLFMHALKMDPDFVDALTEFGIFSEEDKDIIQADYLYTRALTISPYHEKALVNRDRTLPLVEEIDQRYFSIIDSKVKKVMSIPKGNSALRRVMEETYYHHIYHTVAIEGNTLTLSEIRHILETRYAVPGKSDEEQNEVIGMHAAMKYINTTLVSRIGSVTISDVLEIHRRVLGYVDPVEAGRFRTTQVLVGHHIPPHPQDVEKQMQEFVQWLNSEEAMNLHPVEFAALAHYKLVYIAPFIDGNGRTSRLLMNLILMQAGYPPITIRKEQRSDYYHVLEAANEGDVRPFIRFIAKCTETTLDTLLFATTEYSVALPEAQP
notes: FICD, human, residues 104-445 (only the predicted structured regions were expressed); Used in the crystal structures and as BLI analyte; also called monomeric FICD^L258D-H363A; monomeric FICD; source: E. coli (T7 Express lysY/Iq or M15), purified (Ni-NTA, on-bead Ulp1 cleavage, anion exchange, gel filtration); not shown: His6-Smt3, N-terminal, cleaved
B2: FICD^H363A (residues 104-445) (enzyme, human, UniProt Q9BVA6 104-445, looked up)
chain: B1 chain with D155L
notes: FICD, human, residues 104-445; Used non-deuterated and partially deuterated in SANS, and as BLI analyte; also called dimeric FICD^H363A; dimeric FICD; source: E. coli, purified (Ni-NTA, on-bead Ulp1 cleavage, anion exchange, gel filtration); matchout-deuterated form from E. coli BL21 Star (DE3) in 85% deuterated medium, purified; not shown: His6-Smt3, N-terminal, cleaved
B3: TPR domain oxidised dimeric FICD^D160C-T183C-H363A-C421S (enzyme, human, UniProt Q9BVA6 104-445, looked up)
chain: B1 chain with D57C, T80C, D155L, C318S
modifications: intramolecular disulphide bond between Cys160 and Cys183 (TPRox)
notes: FICD, human, residues 104-445, FICD^D160C-T183C-C421S derivative of FICD^H363A; also called TPRox (dimeric); FICD(TPRox); source: E. coli, purified; oxidised with CuSO4 and 1,10-phenanthroline, further anion exchange and gel filtration; not shown: His6-Smt3, N-terminal, cleaved
B4: TPR domain oxidised monomeric FICD^D160C-T183C-L258D-H363A-C421S (enzyme, human, UniProt Q9BVA6 104-445, looked up)
chain: B1 chain with D57C, T80C, C318S
modifications: intramolecular disulphide bond between Cys160 and Cys183 (TPRox)
notes: FICD, human, residues 104-445, FICD^D160C-T183C-C421S derivative of FICD^L258D-H363A; also called TPRox (monomeric); FICD(TPRox); source: E. coli, purified; oxidised with CuSO4 and 1,10-phenanthroline, further anion exchange and gel filtration; not shown: His6-Smt3, N-terminal, cleaved

Tests used:
[1] = molecular target: T1, lid-truncated BiP^T229A-V461F-AMP (residues 27-549) (Chinese hamster, UniProt G3I8R9 27-549, T229A | V461F, AMP covalently attached to Thr518 (Thr518-AMP)); assay: crystal structure; heterodimer of FICD^L258D-H363A and lid-truncated BiP-AMP copurified by SEC in TNKMT buffer (mixed 1.5:1 with 250 uM ATP, 50 mM KCl, 2 mM MgCl2); sitting drop at 25 °C; state 1: 0.1 M MES pH 6.5, 10% PEG 4000, 0.2 M NaCl; state 2: 0.1 M Tris pH 8.0, 25% PEG 400; conditions: both partners purified
T1 construct: BiP, Chinese hamster, residues 27-549 (all of the SBD-alpha lid removed but helix A); in the expressed range hamster and human BiP are identical; also called lid-truncated BiP-AMP; AMPylated BiP; source: E. coli, purified (Ni-NTA, on-bead Ulp1 cleavage, anion exchange, gel filtration); AMPylated in vitro with GST-TEV-FICD^E234G; not shown: His6-Smt3, N-terminal, cleaved
T1 sequence (G3I8R9 27-549 T229A/V461F): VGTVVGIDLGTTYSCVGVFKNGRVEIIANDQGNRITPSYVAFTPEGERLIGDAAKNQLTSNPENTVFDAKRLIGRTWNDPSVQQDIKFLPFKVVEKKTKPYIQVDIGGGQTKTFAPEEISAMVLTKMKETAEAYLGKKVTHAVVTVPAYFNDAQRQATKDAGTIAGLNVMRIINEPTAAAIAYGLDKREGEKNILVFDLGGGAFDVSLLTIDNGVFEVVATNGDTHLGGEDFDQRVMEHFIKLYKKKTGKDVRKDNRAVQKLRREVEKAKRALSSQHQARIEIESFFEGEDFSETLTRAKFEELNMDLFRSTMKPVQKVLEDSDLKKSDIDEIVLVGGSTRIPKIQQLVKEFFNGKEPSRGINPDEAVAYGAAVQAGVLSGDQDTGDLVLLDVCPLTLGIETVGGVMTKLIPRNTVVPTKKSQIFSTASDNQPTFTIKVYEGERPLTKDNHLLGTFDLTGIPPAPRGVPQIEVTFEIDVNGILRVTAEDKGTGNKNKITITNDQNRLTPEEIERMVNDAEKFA

[2] = molecular target: T2, AMPylated biotinylated-AviTag-haBiP^T229A-V461F (Chinese hamster, UniProt G3I8R9 27-635, T229A | V461F, AMP covalently attached to Thr518; biotin on the N-terminal Avi-tag); assay: BLI; biotinylated Avi-tagged BiP (AMPylated or unmodified) on streptavidin biosensors, activated in 2 mM ATP; apo FICD variants (all H363A) as analytes at 50 nM unless otherwise specified; HKM with 0.05% Triton X-100, 30 °C; second dissociation step with 2 mM ATP; conditions: both partners purified
T2 construct: GS linker between the avi-tag and BiP; BiP, Chinese hamster, residues 27-635; Immobilised BLI ligand; also called BiP-AMP; immobilised AMPylated BiP; source: E. coli, purified; AMPylated in vitro, biotinylated in vitro, made apo, then loaded with 2 mM ATP on the sensor; not shown: His6-Smt3, N-terminal, cleaved; Avi-tag (biotinylated), N-terminal, kept
T2 sequence (G3I8R9 other isoform, or with tags, fused parts or gaps T229A | V461F | T229A | V461F | T229A V461F T229A V461F): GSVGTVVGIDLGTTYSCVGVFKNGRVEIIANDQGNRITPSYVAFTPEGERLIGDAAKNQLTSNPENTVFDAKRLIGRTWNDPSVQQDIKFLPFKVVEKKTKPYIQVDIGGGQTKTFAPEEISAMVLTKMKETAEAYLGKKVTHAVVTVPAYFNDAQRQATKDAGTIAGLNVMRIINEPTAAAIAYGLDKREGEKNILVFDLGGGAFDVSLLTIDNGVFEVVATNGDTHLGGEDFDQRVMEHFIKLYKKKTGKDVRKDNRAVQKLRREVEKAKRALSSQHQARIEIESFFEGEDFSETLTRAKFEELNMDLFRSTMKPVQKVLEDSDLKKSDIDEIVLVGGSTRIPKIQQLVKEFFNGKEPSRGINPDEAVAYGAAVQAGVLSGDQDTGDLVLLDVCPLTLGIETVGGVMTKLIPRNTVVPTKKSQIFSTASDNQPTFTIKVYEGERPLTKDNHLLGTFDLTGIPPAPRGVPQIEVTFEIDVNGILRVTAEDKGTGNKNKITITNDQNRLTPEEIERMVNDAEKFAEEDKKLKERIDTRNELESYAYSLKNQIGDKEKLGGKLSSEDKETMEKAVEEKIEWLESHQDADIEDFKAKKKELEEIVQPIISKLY

[3] = molecular target: T3, biotinylated-AviTag-haBiP^T229A-V461F, unmodified, ATP-bound (Chinese hamster, UniProt G3I8R9 27-635, T229A | V461F, biotin on the N-terminal Avi-tag); assay: as above; conditions: both partners purified
T3 construct: GS linker between the avi-tag and BiP; BiP, Chinese hamster, residues 27-635; Immobilised BLI ligand; The in vitro AMPylation assay used untagged BiP^T229A-V461F (UK2521); also called BiP:ATP; unmodified BiP; source: E. coli, purified; biotinylated in vitro, made apo, then loaded with 2 mM ATP on the sensor; not shown: His6-Smt3, N-terminal, cleaved; Avi-tag (biotinylated), N-terminal, kept
T3 sequence (G3I8R9 other isoform, or with tags, fused parts or gaps T229A | V461F | T229A | V461F | T229A V461F T229A V461F): as above

[4] = molecular target: the molecule itself; assay: contrast variation small angle neutron scattering (SANS); complexes of partially deuterated and non-deuterated dimeric FICD^H363A and full-length BiP-AMP copurified by SEC (1.25:1 BiP-AMP:FICD, 250 uM ATP) into TNKMT(0.2) buffers of varying D2O content; 4.3-5.5 mg/ml, 12 °C
[5] = molecular target: T4, BiP^T229A-V461F-AMP (residues 27-635) (Chinese hamster, UniProt G3I8R9 27-635, T229A | V461F, AMP covalently attached to Thr518); assay: as above; conditions: both partners purified
T4 construct: BiP, Chinese hamster, residues 27-635 ('full-length': complete structured region; lacks the acidic N-terminal region and the C-terminal region with KDEL); The deAMPylation assays used BiP^T229A-V461F (UK2521) AMPylated in vitro, with a trace of AMP(FAM)-labelled probe; also called full-length BiP-AMP; full-length AMPylated BiP; source: E. coli, purified; AMPylated in vitro with …
T4 sequence (G3I8R9 27-635 T229A/V461F): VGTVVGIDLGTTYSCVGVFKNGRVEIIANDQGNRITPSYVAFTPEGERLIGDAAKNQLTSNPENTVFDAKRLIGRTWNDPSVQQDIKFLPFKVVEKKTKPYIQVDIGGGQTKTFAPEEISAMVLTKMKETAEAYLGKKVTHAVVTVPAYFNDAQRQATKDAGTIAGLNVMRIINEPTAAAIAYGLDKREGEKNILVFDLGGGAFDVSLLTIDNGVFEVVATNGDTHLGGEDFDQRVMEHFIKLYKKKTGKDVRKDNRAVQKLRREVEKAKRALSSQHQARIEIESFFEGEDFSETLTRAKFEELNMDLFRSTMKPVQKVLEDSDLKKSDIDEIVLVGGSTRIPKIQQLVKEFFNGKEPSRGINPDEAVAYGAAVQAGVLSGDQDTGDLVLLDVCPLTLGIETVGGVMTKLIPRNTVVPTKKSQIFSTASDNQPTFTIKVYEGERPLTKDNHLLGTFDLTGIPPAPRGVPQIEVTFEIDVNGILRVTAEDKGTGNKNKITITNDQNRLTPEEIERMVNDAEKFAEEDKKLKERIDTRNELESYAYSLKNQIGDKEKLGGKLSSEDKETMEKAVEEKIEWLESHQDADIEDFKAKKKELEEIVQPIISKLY

| Binder | binding result [1] | binding result [2] | binding result [3] | binding result [4] | stoichiometry N [5] |
| --- | --- | --- | --- | --- | --- |
| B1 | binds | binds | binds | – | – |
| B2 | – | – | – | binds | 1 FICD per BiP-AMP (2:2) |
| B3 | – | binds | – | – | – |
| B4 | – | binds | binds | – | – |
